Source: the supplement of paper PMC10567573

B1: KLHDC10 (parent)
chain: FGGTGIPFGESNGNGVHVCNVKYK
B2: TRIM29 (parent)
chain: FAEKGELRKSIFSESRKPTVSIME

Variants of: B1
Experiment: protein stability index of a GFP-peptide fusion (GPS, HEK-293T) (PSI 1-6); higher = more stable
Conditions: c terminus: a fixed tail appended
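Further: lentivirally expressed fusions sorted by FACS into six bins by GFP to DsRed ratio, PSI derived from sequencing read proportions per bin multiplied by bin number.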

Compared with K24C, K24D is higher in protein stability index: 1.75 for the first, 2.4 for the second.

First: K24E
Second: K24F
The protein stability index of the first is higher: 1.99 for the first, 1 for the second.

First: K24G
Second: K24H
The protein stability index of the first is higher: 1.6 for the first, 1.57 for the second.

First: K24I
Second: K24L
The protein stability index of the first is lower: 1.42 for the first, 2.06 for the second.

First: K24M
Second: K24N
The protein stability index of the first is higher: 2.42 for the first, 1.82 for the second.

Going from K24P to K24Q, the protein stability index falls from 2.11 to 2.

First: K24R
Second: K24S
The protein stability index of the first is lower: 1.63 for the first, 1.66 for the second.

First: K24T
Second: K24V
The protein stability index of the first is higher: 3.32 for the first, 1.66 for the second.

Compared with K24W, K24Y is lower in protein stability index: 2.61 for the first, 1.88 for the second.

Variants of: B2
Experiment: as above
Conditions: c terminus: a fixed tail appended

Going from F12G to F1V, the protein stability index rises from 2.59 to 3.94.

First: S15H
Second: R16V
The protein stability index of the first is lower: 1.52 for the first, 2.18 for the second.

Compared with E14D, K9M is higher in protein stability index: 1.54 for the first, 2.02 for the second.

First: E14S
Second: R8W
The protein stability index of the first is lower: 2.31 for the first, 2.85 for the second.

Compared with K4V, K17L is higher in protein stability index: 2.38 for the first, 2.86 for the second.

Compared with G5L, E6H is higher in protein stability index: 2.37 for the first, 2.38 for the second.

Going from L7T to I22T, the protein stability index falls from 2.32 to 2.04.

Compared with P18I, T19P is higher in protein stability index: 2.06 for the first, 2.39 for the second.

Compared with T19N, F12R is higher in protein stability index: 1.72 for the first, 3.66 for the second.

Going from F12N to M23F, the protein stability index falls from 3.43 to 1.6.

Going from K9P to R16I, the protein stability index falls from 2.23 to 1.78.

First: E24I
Second: F1G
The protein stability index of the first is lower: 2.79 for the first, 3.89 for the second.

Compared with E3H, P18Q is lower in protein stability index: 1.66 for the first, 1.34 for the second.

Compared with L7N, P18D is higher in protein stability index: 1.55 for the first, 2.32 for the second.

Going from E6A to E3L, the protein stability index falls from 1.77 to 1.04.

First: E14V
Second: S13N
The protein stability index of the first is higher: 2.05 for the first, 1.75 for the second.

First: I11C
Second: K4Q
The protein stability index of the first is lower: 1.64 for the first, 1.71 for the second.

Going from R8A to K4C, the protein stability index falls from 3.85 to 2.24.

First: K4T
Second: K9N
The protein stability index of the first is higher: 2.14 for the first, 1.87 for the second.

Compared with R8Y, E24L is higher in protein stability index: 2.54 for the first, 2.98 for the second.

First: G5W
Second: I22W
The protein stability index of the first is higher: 2.04 for the first, 1.67 for the second.

Compared with G5A, A2E is higher in protein stability index: 1.99 for the first, 3.35 for the second.

Going from E3M to S13K, the protein stability index rises from 2.09 to 2.21.

Going from E14N to K9D, the protein stability index falls from 1.95 to 1.85.

Going from K4D to S13F, the protein stability index falls from 2.06 to 2.01.

P18N and P18G are the same in protein stability index: 2.59 for the first, 2.59 for the second.

Compared with S15E, K4F is lower in protein stability index: 2.01 for the first, 1.77 for the second.

First: V20Y
Second: F1N
The protein stability index of the first is lower: 1.67 for the first, 4.34 for the second.

First: E3T
Second: R16D
The protein stability index of the first is higher: 2.59 for the first, 2.04 for the second.

First: T19R
Second: S10C
The protein stability index of the first is higher: 2.02 for the first, 1.53 for the second.

Going from S10V to G5Y, the protein stability index rises from 2.46 to 2.53.

Going from K9Q to A2Q, the protein stability index rises from 1.8 to 3.44.

Compared with M23P, P18E is higher in protein stability index: 1.84 for the first, 2.35 for the second.

Going from P18W to L7I, the protein stability index falls from 2.83 to 2.18.

First: E14F
Second: K9A
The protein stability index of the first is higher: 1.85 for the first, 1.77 for the second.

Going from T19L to I11S, the protein stability index rises from 1.6 to 3.09.

Compared with P18A, I22Q is lower in protein stability index: 2.01 for the first, 1.55 for the second.

Compared with K9E, F1Q is higher in protein stability index: 1.84 for the first, 3.97 for the second.

First: G5K
Second: R8F
The protein stability index of the first is lower: 1.78 for the first, 2.64 for the second.

First: I11R
Second: M23Q
The protein stability index of the first is higher: 2.71 for the first, 2.47 for the second.

First: G5T
Second: P18K
The protein stability index of the first is higher: 1.64 for the first, 1.41 for the second.

Going from S15C to F1M, the protein stability index rises from 1.59 to 3.73.

Going from K17M to S21W, the protein stability index rises from 1.33 to 2.55.

Going from P18Y to A2G, the protein stability index falls from 2.79 to 2.06.

Compared with S21I, L7V is lower in protein stability index: 3.09 for the first, 1.62 for the second.

First: E24M
Second: S10I
The protein stability index of the first is higher: 2.73 for the first, 2.48 for the second.

Compared with F1T, K17H is lower in protein stability index: 3.95 for the first, 2.11 for the second.

Compared with E3G, S10R is lower in protein stability index: 2.95 for the first, 1.35 for the second.

Going from V20N to E24Y, the protein stability index rises from 1.27 to 2.54.

First: G5E
Second: M23N
The protein stability index of the first is lower: 1.69 for the first, 2.38 for the second.

Compared with R16E, E3A is higher in protein stability index: 1.3 for the first, 3.08 for the second.

Compared with F1W, R16L is lower in protein stability index: 2.6 for the first, 1.99 for the second.

Compared with P18T, V20W is higher in protein stability index: 1.85 for the first, 2.58 for the second.

First: E6L
Second: F1R
The protein stability index of the first is lower: 2.78 for the first, 3.66 for the second.

Compared with K4L, V20D is lower in protein stability index: 2.38 for the first, 2.02 for the second.

First: R16S
Second: E14P
The protein stability index of the first is lower: 1.8 for the first, 3.31 for the second.

First: E6R
Second: S13V
The protein stability index of the first is lower: 1.64 for the first, 2.58 for the second.

Going from R16A to M23L, the protein stability index rises from 1.49 to 1.71.

Going from E3D to T19H, the protein stability index falls from 1.9 to 1.75.

Going from K4Y to S13P, the protein stability index rises from 2.16 to 3.18.

Compared with S10W, S15P is higher in protein stability index: 2.35 for the first, 2.71 for the second.

Compared with A2V, R16M is lower in protein stability index: 2.1 for the first, 2.02 for the second.

First: S21H
Second: S10T
The protein stability index of the first is lower: 1.31 for the first, 1.82 for the second.

First: F12L
Second: S21F
The protein stability index of the first is lower: 2.41 for the first, 2.61 for the second.

First: S10M
Second: K4M
The protein stability index of the first is higher: 2.12 for the first, 1.39 for the second.

Compared with A2I, K4R is higher in protein stability index: 1.89 for the first, 2.08 for the second.

Compared with K9C, M23W is lower in protein stability index: 3.57 for the first, 2.21 for the second.

First: E14A
Second: S21R
The protein stability index of the first is lower: 2.01 for the first, 2.19 for the second.

Going from I11W to F1C, the protein stability index falls from 2.77 to 2.68.

Going from T19F to V20K, the protein stability index rises from 1.59 to 2.08.

Going from R16C to S15F, the protein stability index rises from 1.69 to 2.3.

Compared with V20A, E14W is higher in protein stability index: 1.42 for the first, 1.76 for the second.

First: E3N
Second: S13M
The protein stability index of the first is lower: 2.29 for the first, 2.76 for the second.

First: R16Y
Second: E3W
The protein stability index of the first is lower: 1.4 for the first, 1.83 for the second.

In the case of G5M, the protein stability index is reported as 1.72.
